Experiment: protease stability score; higher = more stable; yeast display proteolysis, trypsin and chymotrypsin;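 note: relative to predicted unfolded state with 0 unfolded-like and 1 meaning tenfold more protease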

“SEEERMTHEATRDLIETILTGDENILRKLADPNMIINVRQGEKDIRIHGRHDYIRWVKLLGVDHVQVRDIHFQGDKATIHLEVEVNGRSINMIIIMRKVDGRWLITETREHHL” showed a protease stability score of 1.09.
Work on “SEEERQLHEFAELIVHDLLTGNFELLSSLLDPHARMEINGKRFHGWTQILDILHRIWLHLRIRDRQVRRVEVYNGRINSRIEVDGEINGRRISLDELLILVVVDGRIRSESIHFE” yielded a protease stability score of 1.03.
With “SEEERQSREFFKKWIHYMLTGDEHQIHTLADPNVRVVINGKEHHGRERLYELVLEFHHRLQNATSRVHTQDSVVIDGRLELHMELRVHQGDKEDTFQIRQLVVKIDGVWHSKSFEVE” the protease stability score was 1.61.
With “SEEERRDEHLMRLWVHLLLTGDEDTLKKLADPDARLVVGDKTFHGMEEVSRIMHEFLRRLGIKHFHDLDFKHVRHINGVAHFNGRLHGIQGEFERNTNIEFVVVVVDGRIKSSEIHWH” the protease stability score was 1.41.
Work on “SEEERRYELFLNLLREIMETGDEHRRSNLMDPHVRFDWNGVEFHGREMLEFIIERLHKEARLESYEIHRVTLIGDKIELRVREKRRVGNKIIEWDVIIIVRKIDGKWTIEEVEIR” yielded a protease stability score of 1.63.
“SEEERSAIEFITRWIQAFETGDEDTLHKLADPNMKIWINGRELIGMQRFIRELQEEMTKRGVRIHIRIEDMRVFNGRLHTDGQFKLEVNGVDVFTTTYLLINKINGKWILEHVNIN” gave a protease stability score of 1.3.
“SEEERTAEKLMRDWLKNWMTGNEEIIKELADPNVKLLVGDKEMHGMEELSRFLKELRIHDSDVRDIRLKSINGVLHIESDGRLKGEFNGQHIDTRTVVRLDVHKFDGRWHLKSIEVEIR” showed a protease stability score of 1.95.
In the case of “SEEERTQTLAMKIIWDVLLTGDWKELFDNMDPHARMEINGRKFHGREEIIRHLRELHNKLGIDRVESHLHSVHYVDGVIHVDIHLHYNGKDERIEIIAMKYNGRWTLTEVNYREE”, the protease stability score is reported as 2.13.
Work on “SEEERVAIEHMRWVIRALLTGDEELLRHLFDPSTRFDFDGQHRIGMEDLVRFWRHLRVRRFEIEDERVHFQGDKIEARTEGRIQGDINGKNVEREIRVILIVMKIDGKWIIRIISHEVD” yielded a protease stability score of 1.63.
For “SEEERVAKHVSHNLFESLKTGNEEEIEKFFDPNVKVQVGEFEHHGREAVLFWFHEFGIKHIHFHEERVQGDKMHSHLNLIVNGRHISHHIHFHKINGRWHITHQRFH”, the protease stability score was 0.828.
“SEEERVLREAIKLLEHLLRTGDEKSFHELFDPDVKIEIGDKEVHGRERWVELYRTWGLENVESHVRVDDERIQGDKMEMDMQLDLRYDGRIDTTKVIILATKINGRWKLEHFEEE” showed a protease stability score of 0.028.
“SEEERYHDKALKILKESVDTGDPHLLSRYMDPNDRLDINGREIHGMEILLKELLHIMERADHIRIELNDIKMQGDFLELDGILIIHQGEYTLQLRVKLVSLKVDGRWLHHSIEVK” gave a protease stability score of 0.171.
Work on “SEEESKERHNEKFLKTVHKTGDEHSWRKMLDPDVRVEYGDKHDHGWEAIERFRKELGIERIHIDDRKIRHNEVVNGQVYLHEELVGTVNGVHVQVKMLIIFHKVDGKWHVELVQIN” yielded a protease stability score of 0.559.
Work on “SEEETDAKIAYHLEYELLKTGDEKMIHENLDPDARFISDVNGVEHRDHGRENFSRSMSEWLKRFGVDHMDIRHVRFFNGKIDMEVEINVNGVRIDLHLHSHKINGQWIITRVDIRID” yielded a protease stability score of 1.24.
Sequence “SEEETFTEIAVKLLMHLWNTGDENELMRNFDPNARMDINGQEYHGREDIVRRLDEFKKRLGVERVHFELNDIRPVNGRADVDGIVIFNGQKLRVRHIVWKINGRWYLEEFEVR” has a protease stability score of 1.44.
In the case of “SEEETHVKEAVKRSVDFLETGDERLFRELFDPNVRLIVNVGNKRVELHGWEEVVRWLREARLHRVILRTIRIQGDKAEVEGDVDGEINGRHDLHIIEWHFIVINGRFHSVSVRIE”, the protease stability score is reported as 1.05.
“SEEETMERLSIEITLEMLKTGDETEILKNMDPDARVIVGDKVYHGREHVIELWRRLGVKHSEPKHVYVINGRVHIDMEVHVDGKRFHVHIISHKINGQWSITNVKLEKE” gave a protease stability score of 2.02.
“SEEETRLEKYLRILLEMWKTGNEEWMFKYADPDARLQVGDKEFHGREHIMKFLKDWLDKAGVKHEEDRREEYIGDKLRVDSERNVNGVENRVILIFVVINGRYREFIIIIR” gave a protease stability score of 1.47.
“SEEEVLAHKFLRTWVESMNTGDEKSIMRLFDPNVRYHVGDKEIHGMDEHREEFTELLHRVKNVRFFFDEHDMRNIDGRIEMKGRLEIIQGEYHESTTVELIITKVNGQWVWESVFIK” showed a protease stability score of 0.488.
Sequence “SEEEVQFRRFFEAFLHFWETGDEKMLKTLLDPHVKFTVHFENHRSHYHGREEFTKFLHELGVKHFELDRVRIEFQGDKIRIEIDGVLLYDGRFHESHIILIIVKVDGRWVIHQLHIQIE” has a protease stability score of 2.15.
“SEEEWLTEYIWRVFIRLLLTGDERAINKLLDPHVQVDVGDKRIHGRELLSHIWRTEAEEIRHHIEVKRFHSQGEKVHHDVRITIIINGQVHRIEAHIHLFIYDGRITHIEVEFR” showed a protease stability score of 1.36.
With “SEEEYWAKEMAILLDIAWYTGDEERFEEYVDPNTRIDFDGRVFHGREFLHHFRERVDHMREVRSRIESVHKQGDKLRVHGHLIIQGVIDGVDTQQRFKVHFIMEKVDGRWIFREEIYK” the protease stability score was 1.51.
“SEEFEILFRLLEELDRAFETGDFKRFMELADPHTRLDVGEFHHWGREKVLEFWRHWRVKHVRVEFKRIDYQGDKLHTDGILRHTGEINGQETHEETRTNIHLIVINGRMHALEVRII” showed a protease stability score of 2.01.
In the case of “SEEFEIYKRASELLAHLMLTGDFDTMNKLMDPNVRLDVDGVDFHGRELVNRKFQHMRIEHTHIERVIWIGDKVHVHTTMTGNIDGRRDERKMEIVSHKVDGRWHVHSVIIL”, the protease stability score is reported as 1.12.
“SEEHDKLQRLIRQWWSEFETGDEDKLTEMFDPHARLHIDGRDVIGRENVSKFVFDFFFEMRIHRTHIEHVDAQGDFLILHYHVRGTVNGRESDIHVLIIFTVVNGRMKSVHVHNE” gave a protease stability score of 1.38.
In the case of “SEEHEDAEKWIRILLRDLKTGDEESLFQLLDPHTKLEVGDKHFHGREQVMRYVLHELKRVDHMEVELKHHHIQGEKAHLDIEVHNIFDGRVFVKHVHIDSKKINGRWRQEKIYIE”, the protease stability score is reported as 1.33.
Work on “SEEHEDAHEMFELWSILLITGDERILHQLMDPDAKTTIDGQEFHGREKLIEVFREFLKRIDHIHEVEVTRMTFFDGRLHINLRVHVTINGVHRQFRVIIIIVKIDGRWVIQSQEIV” yielded a protease stability score of 1.63.
“SEEHEDIKKFLDDLHSAWNTGDWKALEHMLDPHVKFEINGRNFVGREEVRKLLEQIRLHPRSEIKDVRMQGEFVIVDGRVKIKINVNGREHHEVQEIILYLRKVNGKWYIEEIEIR” showed a protease stability score of 1.54.
Work on “SEEHEEAEHWVRLFIEFMLTGDFDEYRQLMDPNDYIEVGDKSLIGMENWHHLLNRVKNLTIRVKRVRVRVVNGRIHVEMDVRDIINGQEVETRIEMVAVKVNGRWLLKTVHLERE” yielded a protease stability score of 1.74.
Sequence “SEEHEEERHHVEDLLRALWTGNEEHLKKLADPHMRTILIVNGKQLDLHGWRDMWRALREIRERLGIDHEHIHRSRIYNGRLEIDSRVEVDGVHHIVKIRVDVIDGKNHEFKIEFR” has a protease stability score of 1.63.
Sequence “SEEHEEVERLMRIYFEERLTGDWDRWLSNVDPHTRIIIEIGDKRIELHGWKDFLRFLRFIKNITIHHVHIRHVDVQGDKAHVDEEIDVTIGDKRTKITHEMIIIVVNGRIKHVYERYI” has a protease stability score of 1.44.
“SEEHEEVHKVIEMLVRHARTGDEDYLRNQFDPNARVRFNGKDRHGRESLDEMLKQFDVIKEVRIKRIDVQGEKIHADIEIRGRYNGQEINTESHIVFKKINGQWIIEEVEFK” gave a protease stability score of 1.6.
For “SEEHEFWERLARLTLHWLETGDWDKMNKNADPNVRTEVNGQELHGRESTTEIMRRDEKFFKNARFHLESMDVQGDKVHLIFEVDYNGRTIRRHLDWVIINGRFKEIRVEIR”, the protease stability score was 1.17.
With “SEEHEHIRRVWEEIRRVLETGDEEALMRMIDPNVRIRNVQGDKELDIHGRESVVRRILKIFQEIWFDFEDRHIDIQGDKLHIEGHLILRVNGREHRLDVREVWVVVNGVIHTVEFMVE” the protease stability score was 1.29.
“SEEHEIIERMMRLFLNYYFTGDEESIQKNADPDVKLNINGRDIHGRERIAEHLFDEIKHLRWHHLHIHSFIVQGEKARVDTRFDGEVDGVRTIFETEIILVVVNGRMKSIEVHRR” showed a protease stability score of 1.28.
In the case of “SEEHEISERLAWMIFELYRTGNEQSIRHLMDPRARIDVNGKEIHGRHIWKERFEEHLVFFKNLRFHLDDVDVQGDKIDIHGTNRFDGRHVRFDLHIHVVDGRLKVITVRIDER”, the protease stability score is reported as 1.55.
For “SEEHEKLHHLMELMLNAITTGDWEIIEHLADPNVRIDQGEWHDHGREKLIHIHELVRERMGIKHVEVRDSRMFHINGVVVIILRLDLNVNGKHRFEILRLQFRKVDGQWVMHSLDIELR”, the protease stability score was 1.74.
Sequence “SEEHEKTRRALELWIDVMKTGDPEHILRLLDPHTKIHQGEFELHGRHDAHRWLSRLGVERIHFELKDVRYFDGQILVDGVIFFNGRESRVNVVAMKVNGRWFVDSLEIQ” has a protease stability score of 0.755.
“SEEHELAESMAEEVLRSFLTGDEDTLHELFDPHVRVNYNGKVFHGREKLIKILNELRWDHTTVKRIEIRYYGDKVEVVLHVEIHFEINGQRISHRVDIIIIAEKVNGRWRVRDFIYIEK” gave a protease stability score of 1.35.
“SEEHELSHHWADLMFHWMLTGDEEMFEHFADPHVRLHVNGKDIHGREKFVEWLREELEKIKNLTYRLHDVEIQGDKVHLTVKVDVNGKRLDTRVHIDLVNGRVRSIEIRHR” gave a protease stability score of 1.42.
For “SEEHEMLKRIMELVIHLFLTGNEDWLRELIDPDTRLHINGVDNHGREEAIRWLHEYNKHLRIHTMEIKRLDVVNGQAHSHVHHEWTINGKQHETEMELIVVVVNGKVKSQELRIK”, the protease stability score was 0.629.
“SEEHEQLLRMAQIWIKNWLTGDEKSMIELADPRVLFIYGDKIHHGWEEMSKFLHRLMEEIRIEDLRIDSFRAYNGRVEHDTTIDVEIGDKRINLKHHFHLDVVDGRIRHVKVKID” gave a protease stability score of 0.726.
“SEEHERIKRASEEIWRMSETGDFETFFNNFDPNARSDVDGVFNHGREELHRVLLEFWHKLGLTRIDAKVHDDHSFENHLKVDLEERFDGRTVEVRIISRKYDGRWFYTDLIIIRR” showed a protease stability score of 0.169.
“SEEHESSQKAIELLWHSMETGDEKLTEDFADPHVRLEFNGVRFHGRDQMNEIIHRQLREMRLKSIHLHHIYSFNGRVHIHGEVIGRVDGRELSHEMEIVAVKVDGKWVLKSLRIH” gave a protease stability score of 1.2.
“SEEHETMNKLASDLIHDWLTGDWENTKELLDPHVKIDERVNGKNHQHHGREELVRILRERHEKIKGLRISIHHWEVINGRLHMDLRLHINGKTFSVEIHITIVDGRVKHIHVDIN” showed a protease stability score of 1.22.
“SEEHEVAKDAFDVTSHSWKTGDEELFRKLLDPNARFEIDGRDLHGRELVIKFIIEIRWEHTHVEEINVQGDKIIIKSRMEIHYNGVHINITVIVHVRKVNGRWITTHYIFI” showed a protease stability score of 1.67.
“SEEHHDAERAMEEFLKVMNTGNEKLLRDLIDPNVRTEINGQEIIGWKSMHRIMREWGVDNIRVHLRRLEVQGEKLHLEEELNVNGRTSKMEIVALKINGRWVVSEIRFH” showed a protease stability score of 2.03.
Sequence “SEEHHHYSELMHQLTEWMLTGNFEEWARYADPNTRARIDIDGRRLEVHGREEMMRVLKEHRKLMGVDHIEVRDRHVFNGRNELIFILHQGDKERHSHITIVVINGQIKEVDIILR” has a protease stability score of 1.61.
For “SEEHHIIHKFLEDFLRSWITGDEKSMKELLDPHAKVDIRVNGRDVHPHGWEFLEWYKRFFKNAQFRVHDIDVQGNKVHLITEVVVNGQKEEMHIHLQVVDGRAERVETRIH”, the protease stability score was 1.9.
“SEEHHSEKLAIHLSKEISHTGDETWIKKMLDPNVKIVIGDKEFHGMENFVTHWHRLVKELGVDRVRHRVEDSDVQGDKLTMHVEIEVNGRKVESHIIAHKFNGRWLVKEIIFH” showed a protease stability score of 1.23.
